Results taken from patent publication US20200319189A1.

Tests used:
[1] = biological target: AGP from plasma of patients with hepatocellular carcinoma (HCC-AGP) (human) (UniProt P02763); assay: standard lectin ELISA: antibody 058 coated, plasma 1:50, biotinylated S2 at 0.25 µg/mL for detection
[2] = biological target: AGP from plasma of patients with hepatocellular carcinoma (HCC-AGP) (human) (UniProt P02763); assay: reversed S2-ELISA: S2 coated at 5 µg/mL, plasma 1:50, detection with antibody 058
[3] = biological target: AGP from plasma of patients with hepatocellular carcinoma (HCC-AGP) (human) (UniProt P02763); assay: reversed S2-ELISA, HCC-plasma sample against a normal sample (background); 5 µg/ml S2 coating
[4] = biological target: desialylated AGP (dsAGP) (human) (UniProt P02763); assay: standard lectin ELISA: antibody 058 coated, dsAGP 2 µg/ml, biotinylated S2 at 0.25 µg/mL for detection
[5] = biological target: desialylated AGP (dsAGP) (human) (UniProt P02763); assay: reversed S2-ELISA: S2 coated at 5 µg/mL, dsAGP 2 µg/ml, detection with antibody 058

signal to background ratio [1]: 1.05
signal to noise ratio [2]: 5.1
signal to background ratio [3]: 10
signal to background ratio [4]: 1.38
signal to noise ratio [5]: 5.2
Substance: S2-peptide (monovalent fucose-binding peptide; recombinant form of Aleuria aurantia lectin comprising only binding site 2) (from UniProt P18891 51-161)
